Here are results for 15 molecules from US20160120951A1 (ZEALAND PHARMA A S, published 2016).

Numbered stars: 1 amine (or outer) side, 2 acyl side, 3 side chain; on linkers, the order of the positions; unused ones are H or OH. Square brackets hold non-standard residues; d marks the D form. Side chains are listed from the residue outwards. * marks the point of attachment. γGlu = O=C(O)[C@H](CCC(=O)[*:2])N[*:1]; Palmitoyl = CCCCCCCCCCCCCCCC(=O)*; Aib = CC(C)(N)C(=O)O

First the molecules themselves.
B1: Compound 25 (peptide)
peptide: HXQGTFTSDYSKYLDSKAAHDFVEWLLSA
modifications: Aib at position 2; K(Octadecanoyl-isoGlu) at position 17; C-terminal amide (NH2)
B2: Compound 24 (peptide)
peptide: HXQGTFTSDYSKYLDSKAAHDFVEWLLSA
modifications: Aib at position 2; K([2-Butyloctanoyl]-isoGlu) at position 17; C-terminal amide (NH2)
B3: Compound 29 (peptide)
peptide: HXQGTFTSDYSKYLDSKAAHDFVEWLLSA
modifications: Aib at position 2; K(Hexadecanoyl-[8-Aminooctanoyl]) at position 17; C-terminal amide (NH2)
B4: Compound 19 (peptide)
peptide: H-H[Aib]QGTFTSDYSKYLDSK([γGlu-Palmitoyl])AAHDFVEWLL-OH
SMILES: CCCCCCCCCCCCCCCC(=O)N[C@@H](CCC(=O)NCCCC[C@H](NC(=O)[C@H](CO)NC(=O)[C@H](CC(=O)O)NC(=O)[C@H](CC(C)C)NC(=O)[C@H](Cc1ccc(O)cc1)NC(=O)[C@H](CCCCN)NC(=O)[C@H](CO)NC(=O)[C@H](Cc1ccc(O)cc1)NC(=O)[C@H](CC(=O)O)NC(=O)[C@H](CO)NC(=O)[C@@H](NC(=O)[C@H](Cc1ccccc1)NC(=O)[C@@H](NC(=O)CNC(=O)[C@H](CCC(N)=O)NC(=O)C(C)(C)NC(=O)[C@@H](N)Cc1c[nH]cn1)[C@@H](C)O)[C@@H](C)O)C(=O)N[C@@H](C)C(=O)N[C@@H](C)C(=O)N[C@@H](Cc1c[nH]cn1)C(=O)N[C@@H](CC(=O)O)C(=O)N[C@@H](Cc1ccccc1)C(=O)N[C@H](C(=O)N[C@@H](CCC(=O)O)C(=O)N[C@@H](Cc1c[nH]c2ccccc12)C(=O)N[C@@H](CC(C)C)C(=O)N[C@@H](CC(C)C)C(=O)O)C(C)C)C(=O)O
B5: Compound 27 (peptide)
peptide: HXQGTFTSDYSKYLDSKAAHDFVEWLLSA
modifications: Aib at position 2; K(Hexadecanoyl-[4-Aminobutanoyl]) at position 17; C-terminal amide (NH2)
B6: Compound 22 (peptide)
peptide: H-H[Aib]EGTFTSDYSKYLDSK([γGlu-Palmitoyl])AAHDFVEWLLSA-NH2
SMILES: CCCCCCCCCCCCCCCC(=O)N[C@@H](CCC(=O)NCCCC[C@H](NC(=O)[C@H](CO)NC(=O)[C@H](CC(=O)O)NC(=O)[C@H](CC(C)C)NC(=O)[C@H](Cc1ccc(O)cc1)NC(=O)[C@H](CCCCN)NC(=O)[C@H](CO)NC(=O)[C@H](Cc1ccc(O)cc1)NC(=O)[C@H](CC(=O)O)NC(=O)[C@H](CO)NC(=O)[C@@H](NC(=O)[C@H](Cc1ccccc1)NC(=O)[C@@H](NC(=O)CNC(=O)[C@H](CCC(=O)O)NC(=O)C(C)(C)NC(=O)[C@@H](N)Cc1c[nH]cn1)[C@@H](C)O)[C@@H](C)O)C(=O)N[C@@H](C)C(=O)N[C@@H](C)C(=O)N[C@@H](Cc1c[nH]cn1)C(=O)N[C@@H](CC(=O)O)C(=O)N[C@@H](Cc1ccccc1)C(=O)N[C@H](C(=O)N[C@@H](CCC(=O)O)C(=O)N[C@@H](Cc1c[nH]c2ccccc12)C(=O)N[C@@H](CC(C)C)C(=O)N[C@@H](CC(C)C)C(=O)N[C@@H](CO)C(=O)N[C@@H](C)C(N)=O)C(C)C)C(=O)O
B7: Compound 28 (peptide)
peptide: HXQGTFTSDYSKYLDSKAAHDFVEWLLSA
modifications: Aib at position 2; K(Hexadecanoyl-E) (Hexadecanoyl-αGlu) at position 17; C-terminal amide (NH2)
B8: Compound 32 (peptide)
peptide: HXQGTFTSDYSKYLDSXAAHDFVEWLLSA
modifications: Aib at position 2; Orn(Hexadecanoyl-isoGlu) at position 17; C-terminal amide (NH2)
B9: Compound 21 (peptide)
peptide: HXQGTFTSDYSKYLDSKAAHDFVEWLLSA
modifications: Aib at position 2; K(Hexadecanoyl-isoGlu) at position 17; free C-terminal acid (OH)
B10: Compound 20 (peptide)
peptide: H-H[Aib]EGTFTSDYSKYLDSK([γGlu-Palmitoyl])AAHDFVEWLLSA-OH
SMILES: CCCCCCCCCCCCCCCC(=O)N[C@@H](CCC(=O)NCCCC[C@H](NC(=O)[C@H](CO)NC(=O)[C@H](CC(=O)O)NC(=O)[C@H](CC(C)C)NC(=O)[C@H](Cc1ccc(O)cc1)NC(=O)[C@H](CCCCN)NC(=O)[C@H](CO)NC(=O)[C@H](Cc1ccc(O)cc1)NC(=O)[C@H](CC(=O)O)NC(=O)[C@H](CO)NC(=O)[C@@H](NC(=O)[C@H](Cc1ccccc1)NC(=O)[C@@H](NC(=O)CNC(=O)[C@H](CCC(=O)O)NC(=O)C(C)(C)NC(=O)[C@@H](N)Cc1c[nH]cn1)[C@@H](C)O)[C@@H](C)O)C(=O)N[C@@H](C)C(=O)N[C@@H](C)C(=O)N[C@@H](Cc1c[nH]cn1)C(=O)N[C@@H](CC(=O)O)C(=O)N[C@@H](Cc1ccccc1)C(=O)N[C@H](C(=O)N[C@@H](CCC(=O)O)C(=O)N[C@@H](Cc1c[nH]c2ccccc12)C(=O)N[C@@H](CC(C)C)C(=O)N[C@@H](CC(C)C)C(=O)N[C@@H](CO)C(=O)N[C@@H](C)C(=O)O)C(C)C)C(=O)O
B11: Compound 31 (peptide)
peptide: HXQGTFTSDYSKYLDSKAAHDFVEWLLSA
modifications: Aib at position 2; K(Hexadecanoyl-[3-Aminopropanoyl]) at position 17; C-terminal amide (NH2)
B12: Compound 18 (peptide)
peptide: H-H[Aib]QGTFTSDYSKYLDSK([γGlu-Palmitoyl])AAHDFVEWLLS-OH
SMILES: CCCCCCCCCCCCCCCC(=O)N[C@@H](CCC(=O)NCCCC[C@H](NC(=O)[C@H](CO)NC(=O)[C@H](CC(=O)O)NC(=O)[C@H](CC(C)C)NC(=O)[C@H](Cc1ccc(O)cc1)NC(=O)[C@H](CCCCN)NC(=O)[C@H](CO)NC(=O)[C@H](Cc1ccc(O)cc1)NC(=O)[C@H](CC(=O)O)NC(=O)[C@H](CO)NC(=O)[C@@H](NC(=O)[C@H](Cc1ccccc1)NC(=O)[C@@H](NC(=O)CNC(=O)[C@H](CCC(N)=O)NC(=O)C(C)(C)NC(=O)[C@@H](N)Cc1c[nH]cn1)[C@@H](C)O)[C@@H](C)O)C(=O)N[C@@H](C)C(=O)N[C@@H](C)C(=O)N[C@@H](Cc1c[nH]cn1)C(=O)N[C@@H](CC(=O)O)C(=O)N[C@@H](Cc1ccccc1)C(=O)N[C@H](C(=O)N[C@@H](CCC(=O)O)C(=O)N[C@@H](Cc1c[nH]c2ccccc12)C(=O)N[C@@H](CC(C)C)C(=O)N[C@@H](CC(C)C)C(=O)N[C@@H](CO)C(=O)O)C(C)C)C(=O)O
B13: Compound 30 (peptide)
peptide: HXQGTFTSDYSKYLDSKAAHDFVEWLLSA
modifications: Aib at position 2; K(Hexadecanoyl-isoLys) at position 17; C-terminal amide (NH2)

The first assay concerns the target human glucagon receptor (Glucagon-R) (human, UniProt P47871 26-477). Kind of assay: cell-based or functional assay.
As to B1, the “EC50 (nM) GluR, cAMP formation” value was found to be 0.103 nM.
As for B2, the “EC50 (nM) GluR, cAMP formation” value worked out at 0.133 nM.
With B3, the “EC50 (nM) GluR, cAMP formation” value came out at 0.123 nM.
Still for that read-out and setting: to B4 belongs 0.483 nM; to B5, 0.147 nM.
The same measure, in the same setting: for HXQGTFTSDYSKYLDSKAAHDFVEWLLSA (Aib at position 2; K(Hexadecanoyl) at position 17; C-terminal amide (NH2)) [Compound 23] the value was 0.124 nM.
Regarding B6, the “EC50 (nM) GluR, cAMP formation” value stood at 26.4 nM.
Turning to B7, the “EC50 (nM) GluR, cAMP formation” value was found to be 0.108 nM.
Regarding B8, the “EC50 (nM) GluR, cAMP formation” value turned out to be 0.193 nM.
Regarding B9, the “EC50 (nM) GluR, cAMP formation” value is 0.15 nM.
With B10, the “EC50 (nM) GluR, cAMP formation” value worked out at 13.3 nM.
As for B11, the “EC50 (nM) GluR, cAMP formation” value was 0.151 nM.
In the case of B12, the “EC50 (nM) GluR, cAMP formation” value came out at 0.091 nM.
As for HXQGTFTSDYSKYLDSKAAHDFVEWLLSA (Aib at position 2; K(Dodecanoyl-isoGlu) at position 17; C-terminal amide (NH2)) [Compound 26], the “EC50 (nM) GluR, cAMP formation” value came out at 0.116 nM.
For the molecule B13, the “EC50 (nM) GluR, cAMP formation” value is 0.11 nM.

The next assay deals with human glucagon-like peptide 1 receptor (GLP-1R) (human, UniProt P43220 24-463). The assay is described as follows: cell-based or functional assay.
human glucagon-like peptide 1 receptor (GLP-1R), sequence (P43220 24-463): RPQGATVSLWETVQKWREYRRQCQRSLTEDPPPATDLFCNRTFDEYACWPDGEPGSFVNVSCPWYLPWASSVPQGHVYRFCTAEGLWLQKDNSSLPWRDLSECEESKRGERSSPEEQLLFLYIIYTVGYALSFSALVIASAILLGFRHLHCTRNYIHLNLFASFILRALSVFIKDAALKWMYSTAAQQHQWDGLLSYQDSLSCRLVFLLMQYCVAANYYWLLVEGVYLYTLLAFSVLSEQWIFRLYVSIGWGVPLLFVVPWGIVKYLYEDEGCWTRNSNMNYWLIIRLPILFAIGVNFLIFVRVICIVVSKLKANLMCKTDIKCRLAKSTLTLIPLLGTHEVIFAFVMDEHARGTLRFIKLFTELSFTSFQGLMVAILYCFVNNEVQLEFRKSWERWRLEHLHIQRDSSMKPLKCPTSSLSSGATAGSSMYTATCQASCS
Regarding B1, the “EC50 (nM) GLP-1R, cAMP formation” value was 0.069 nM.
On the same count and under the same terms, for B2 the value was 0.161 nM; for B3, 0.199 nM; for B4, 0.048 nM.
Take B5: the “EC50 (nM) GLP-1R, cAMP formation” value is 0.152 nM.
In the case of HXQGTFTSDYSKYLDSKAAHDFVEWLLSA (Aib at position 2; K(Hexadecanoyl) at position 17; C-terminal amide (NH2)) [Compound 23], the “EC50 (nM) GLP-1R, cAMP formation” value was 0.14 nM.
As for B6, the “EC50 (nM) GLP-1R, cAMP formation” value is 0.014 nM.
Same read-out and setting: for B7 the value was 0.149 nM; for B8, 0.195 nM; for B9, 0.077 nM.
For the molecule B10, the “EC50 (nM) GLP-1R, cAMP formation” value worked out at 0.057 nM.
On the same count and under the same terms, for B11 the value was 0.103 nM; for B12, 0.066 nM.
As to HXQGTFTSDYSKYLDSKAAHDFVEWLLSA (Aib at position 2; K(Dodecanoyl-isoGlu) at position 17; C-terminal amide (NH2)) [Compound 26], the “EC50 (nM) GLP-1R, cAMP formation” value turned out to be 0.097 nM.
Still for that read-out and setting: to B13 belongs 0.132 nM.
